Results reported in US20080112961A1 (MacroGenics, published 2008).
Residue numbers refer to the chain shown, from its start. Numbers in names are those of the source.

T1: FcγRIIB (form not stated) (UniProt P31994 43-217, limits assumed)
T1 construct: also called FcγRIIB (ELISA)
T1 sequence (looked up): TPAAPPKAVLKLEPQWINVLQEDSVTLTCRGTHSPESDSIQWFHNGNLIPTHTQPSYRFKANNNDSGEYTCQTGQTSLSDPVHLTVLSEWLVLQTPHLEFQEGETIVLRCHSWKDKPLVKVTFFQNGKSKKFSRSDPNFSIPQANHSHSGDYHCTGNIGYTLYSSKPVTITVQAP

B1: ch4-4-20 K317N, F423-deleted (antibody)
chain: EPKSCDKTHTCPPCPAPELLGGPSVFLFPPKPKDTLMISRTPEVTCVVVDVSHEDPEVKFNWYVDGVEVHNAKTKPREEQYNSTYRVVSVLTVLHQDWLNGNEYKCKVSNKALPAPIEKTISKAKGQPREPQVYTLPPSREEMTKNQVSLTCLVKGFYPSDIAVEWESNGQPENNYKTTPPVLDSDGSFFLYSKLTVDKSRWQQGNVSCSVMHEALHNHYTQKSLSLSPGK
B2: ch4-4-20 A231V, Q386H, V412M (antibody)
heavy: ASTKGPSVFPLAPSSKSTSGGTAALGCLVKDYFPEPVTVSWNSGALTSGVHTFPAVLQSSGLYSLSSVVTVPSSSLGTQTYICNVNHKPSNTKVDKKVEPKSCDKTHTCPPCPVPELLGGPSVFLFPPKPKDTLMISRTPEVTCVVVDVSHEDPEVKFNWYVDGVEVHNAKTKPREEQYNSTYRVVSVLTVLHQDWLNGKEYKCKVSNKALPAPIEKTISKAKGQPREPQVYTLPPSRDELTKNQVSLTCLVKGFYPSDIAVEWESNGHPENNYKTTPPVLDSDGSFFLYSKLTMDKSRWQQGNVFSCSVMHEALHNHYTQKSLSLSPGK
B3: ch4-4-20 V348M, K334N, F275I, Y202M, K147T (antibody)
chain: B2 heavy with K30T, V85M, V114A, F158I, K217N, V231M, H269Q, M295V
B4: ch4-4-20 P343S, P353L, S375I, S383N (antibody)
heavy: B2 heavy with V114A, P226S, P236L, S258I, S266N, H269Q, M295V
B5: ch4-4-20 K246R, S298N, I377F (antibody)
heavy: B2 heavy with V114A, K129R, S181N, I260F, H269Q, M295V
B6: ch4-4-20 K222N, T335N, K370E, A378V, T394M (antibody)
heavy: B2 heavy with K105N, V114A, T218N, K253E, A261V, H269Q, T277M, M295V
B7: ch4-4-20 K290E, V369A, T393A, P396L (antibody)
heavy: B2 heavy with V114A, K173E, V252A, H269Q, T276A, P279L, M295V
B8: ch4-4-20 K334E, E380D, G446V (antibody)
heavy: B2 heavy with V114A, K217E, E263D, H269Q, M295V, G329V
B9: ch4-4-20 V282E, V369I, L406F (antibody)
heavy: B2 heavy with V114A, V165E, V252I, H269Q, L289F, M295V
B10: ch4-4-20 K246N, Q419R, P396L (antibody)
heavy: B2 heavy with V114A, K129N, H269Q, P279L, M295V, Q302R
B11: ch4-4-20 P244A, K326I, C367R, S375I, K447T (antibody)
heavy: B2 heavy with V114A, P127A, K209I, C250R, S258I, H269Q, M295V, K330T
B12: ch4-4-20 K246E, V284M, V308A (antibody)
heavy: B2 heavy with V114A, K129E, V167M, V191A, H269Q, M295V
B13: ch4-4-20 N315I, V379M, T394M (antibody)
heavy: B2 heavy with V114A, N198I, V262M, H269Q, T277M, M295V
B14: ch4-4-20 P244H, L358M, V379M, N384K, V397M (antibody)
heavy: B2 heavy with V114A, P127H, L241M, V262M, N267K, H269Q, V280M, M295V
B15: ch4-4-20 C229Y, A287T, V379M, P396L, L443V (antibody)
heavy: B2 heavy with C112Y, V114A, A170T, V262M, H269Q, P279L, M295V, L326V
B16: ch4-4-20 V273I, K326E, L328I, P396L (antibody)
heavy: B2 heavy with V114A, V156I, K209E, L211I, H269Q, P279L, M295V
B17: ch4-4-20 R301H, K340E, D399E (antibody)
heavy: B2 heavy with V114A, R184H, K223E, H269Q, D282E, M295V
B18: ch4-4-20 F275I, K334N, V348M (antibody)
heavy: B2 heavy with V114A, F158I, K217N, V231M, H269Q, M295V
B19: ch4-4-20 K326I, S408N, P396L (antibody)
heavy: B2 heavy with V114A, K209I, H269Q, P279L, S291N, M295V
B20: ch4-4-20 D221Y, M252I, A330G, A339T, T359N, V422I, H433L (antibody)
heavy: B2 heavy with D104Y, V114A, M135I, A213G, A222T, T242N, H269Q, M295V, V305I, H316L
B21: ch4-4-20 K326Q, K334E, T359N, T366S (antibody)
heavy: B2 heavy with V114A, K209Q, K217E, T242N, T249S, H269Q, M295V
B22: ch4-4-20 K290T, N390I, P396L (antibody)
heavy: B2 heavy with V114A, K173T, H269Q, N273I, P279L, M295V
B23: ch4-4-20 V397M, T411A, S415N (antibody)
heavy: B2 heavy with V114A, H269Q, V280M, T294A, M295V, S298N
B24: ch4-4-20 P247L, A431V, S442F (antibody)
heavy: B2 heavy with V114A, P130L, H269Q, M295V, A314V, S325F
B25: ch4-4-20 F243L, R255L, E318K (antibody)
heavy: B2 heavy with V114A, F126L, R138L, E201K, H269Q, M295V
B26: ch4-4-20 F243L, V305I, A378D, F404S, P396L (antibody)
heavy: B2 heavy with V114A, F126L, V188I, A261D, H269Q, P279L, F287S, M295V
notes: also called MgFc54
B27: ch4-4-20 E269K, K290N, Q311R, H433Y (antibody)
heavy: B2 heavy with V114A, E152K, K173N, Q194R, H269Q, M295V, H316Y
B28: ch4-4-20 P291S, K288E, H268L, A141V (antibody)
heavy: B2 heavy with A24V, V114A, H151L, K171E, P174S, H269Q, M295V
B29: ch4-4-20 A378V, N390I, V422I (antibody)
heavy: B2 heavy with V114A, A261V, H269Q, N273I, M295V, V305I
B30: ch4-4-20 K246I, Q362H, K370E (antibody)
heavy: B2 heavy with V114A, K129I, Q245H, K253E, H269Q, M295V
B31: ch4-4-20 P247L, W313R, E388G (antibody)
heavy: B2 heavy with V114A, P130L, W196R, H269Q, E271G, M295V
B32: ch4-4-20 P247L, I253N, K334N (antibody)
heavy: B2 heavy with V114A, P130L, I136N, K217N, H269Q, M295V
B33: ch4-4-20 V303I, V369F, M428L (antibody)
heavy: B2 heavy with V114A, V186I, V252F, H269Q, M295V, M311L
B34: ch4-4-20 T256S, V305I, K334E, N390S (antibody)
heavy: B2 heavy with V114A, T139S, V188I, K217E, H269Q, N273S, M295V
B35: ch4-4-20 P247L, A330T, S440G (antibody)
heavy: B2 heavy with V114A, P130L, A213T, H269Q, M295V, S323G
B36: ch4-4-20 D280E, S354F, A431D, L441I (antibody)
heavy: B2 heavy with V114A, D163E, S237F, H269Q, M295V, A314D, L324I
B37: ch4-4-20 T335N, K370E, A378V, T394M, S424L (antibody)
heavy: B2 heavy with V114A, T218N, K253E, A261V, H269Q, T277M, M295V, S307L
B38: ch4-4-20 F275L, Q362H, N384K, P396L (antibody)
heavy: B2 heavy with V114A, F158L, Q245H, N267K, H269Q, P279L, M295V
B39: ch4-4-20 K334E, T359N, T366S, Q386R (antibody)
heavy: B2 heavy with V114A, K217E, T242N, T249S, H269R, M295V
B40: ch4-4-20 T215P, K274N, A287G, K334N, L365V, P396L (antibody)
chain: PEPKSCDKTHTCPPCPAPELLGGPSVFLFPPKPKDTLMISRTPEVTCVVVDVSHEDPEVNFNWYVDGVEVHNGKTKPREEQYNSTYRVVSVLTVLHQDWLNGKEYKCKVSNKALPAPIENTISKAKGQPREPQVYTLPPSRDELTKNQVSVTCLVKGFYPSDIAVEWESNGQPENNYKTTPLVLDSDGSFFLYSKLTVDKSRWQQGNVFSCSVMHEALHNHYTQKSLSLSPGK

What was measured:
[1] = target: T1, FcγRIIB (form not stated); test: ELISA
[2] = target: T2, FcγRIIIA (form not stated) (UniProt P08637 17-208, limits assumed); test: ELISA
T2 construct: also called FcγRIIIA (ELISA)
T2 sequence (P08637 17-208 F176V limits assumed, form in doubt): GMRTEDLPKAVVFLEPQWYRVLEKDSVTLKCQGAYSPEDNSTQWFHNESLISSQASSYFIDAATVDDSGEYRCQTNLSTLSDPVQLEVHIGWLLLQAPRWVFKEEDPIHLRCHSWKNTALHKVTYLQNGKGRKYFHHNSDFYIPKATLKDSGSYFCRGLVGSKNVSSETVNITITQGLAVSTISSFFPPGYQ

| Binder | fold increase vs WT [1] [x] | fold increase vs WT [2] [x] | also measured |
| --- | --- | --- | --- |
| B1 | 7 | – | – |
| B2 | 6 | 1.5 | – |
| B3 | 0.75 | 0.5 | – |
| B4 | 6 | 0.5 | – |
| B5 | 5 | 1 | – |
| B6 | 7 | 1 | – |
| B7 | 6.7 | 1.3 | – |
| B8 | – | – | binding result [1]: no binding |
| B9 | 7 | 0.5 | – |
| B10 | 4.8 | 1.1 | – |
| B11 | 3 | – | – |
| B12 | – | – | binding result [1]: no binding |
| B13 | 9 | 1 | – |
| B14 | 1.5 | 1.75 | – |
| B15 | 10 | – | – |
| B16 | 10.8 | 1.3 | – |
| B17 | – | – | fold decrease vs WT [2]: 0.5 x; fold decrease vs WT [1]: 0.25 x |
| B18 | – | 0.5 | binding result [1]: binds |
| B19 | 9.3 | 4 | – |
| B20 | 6 | 2.5 | – |

| Binder | fold increase vs WT [1] [x] | fold increase vs WT [2] [x] | also measured |
| --- | --- | --- | --- |
| B21 | 5 | 1.5 | – |
| B22 | 6.1 | 2.8 | – |
| B23 | 5 | 0.25 | – |
| B24 | – | – | fold vs WT [2]: 1 x; binding result [1]: binds |
| B25 | – | 1 | – |
| B26 | 5.4 | 1.6 | – |
| B27 | – | – | binding result [1]: no binding |
| B28 | – | – | fold decrease vs WT [2]: 0.5 x |
| B29 | 5 | 0.5 | – |
| B30 | – | – | fold decrease vs WT [1]: 0.5 x |
| B31 | 1 | 1.5 | – |
| B32 | 2.5 | 3 | – |
| B33 | – | – | binding result [1]: no binding |
| B34 | – | 1.5 | binding result [1]: binds |
| B35 | – | 0.75 | fold decrease vs WT [1]: 0.25 x |
| B36 | – | 3 | binding result [1]: binds |
| B37 | – | 0.5 | binding result [1]: binds |
| B38 | 3.7 | 2.2 | – |
| B39 | – | 1 | binding result [1]: binds |
| B40 | 4 | – | – |
